# Data published in the Human Domainome abundance scans (Beltran et al. 2025).
# ± gives the uncertainty stated by the source.
# B1: POU domain, class 3, transcription factor 2, residues 262 to 338; numbered along this chain, P20265 (parent)
# chain: EDTPTSDDLEQFAKQFKQRRIKLGFTQADVGLALGTLYGNVFSQTTICRFEALQLSFKNMCKLKPLLNKWLEEADSS
# B2: RUN and FYVE domain-containing protein 1, residues 639 to 698; numbered along this chain, Q96T51 (parent)
# chain: WLKDDEATHCRQCEKEFSISRRKHHCRNCGHIFCNTCSSNELALPSYPKPVRVCDSCHTL
# Variants of: B1
# Experiment: abundance fitness (aPCA) (normalised: wild type 0, dead -1); higher = more abundant; growth selection in yeast, the domain comes from the species named
# Conditions: Homo sapiens
row,Variant,abundance fitness
1,E1G,-0.031 ± 0.037
2,E1D,-0.014 ± 0.089
3,E1F,0.231 ± 0.27
4,E1I,-0.066 ± 0.17
5,E1P,0.085 ± 0.28
6,E1S,-0.164 ± 0.076
7,E1A,-0.108 ± 0.058
8,E1Q,-0.088 ± 0.12
9,E1N,0.124 ± 0.21
10,E1K,-0.105 ± 0.18
11,E1M,0.05 ± 0.066
12,E1L,-0.109 ± 0.065
13,E1T,-0.006 ± 0.14
14,E1C,-0.035 ± 0.15

# Variants of: B2
# Experiment: as above
# Conditions: Homo sapiens
row,Variant,abundance fitness
1,H25S,0.07 ± 0.034
2,H25M,0.051 ± 0.037
3,H25V,0.044 ± 0.04
4,H25A,0.121 ± 0.045
5,H25E,-0.02 ± 0.052
6,H25D,-0.176 ± 0.058
7,S20P,-0.061 ± 0.048
8,C26D,-0.794 ± 0.11
9,C26L,-0.763 ± 0.055
10,P48Q,-0.051 ± 0.054
11,L60V,-0.202 ± 0.065
12,H9S,-0.115 ± 0.036
13,H9T,-0.221 ± 0.045
14,H9A,0.136 ± 0.047
15,H9R,-0.23 ± 0.036
16,N35P,0.233 ± 0.051
17,N35K,0.183 ± 0.057
18,S46Y,-0.2 ± 0.064
19,S46V,-0.265 ± 0.055
20,K15L,-0.188 ± 0.037
21,K15D,-0.233 ± 0.075
22,C54G,-0.731 ± 0.25
23,C54R,-0.278 ± 0.48
24,S56D,0.097 ± 0.055
25,S56Q,0.319 ± 0.049
26,P45S,0.027 ± 0.043

row,Variant,abundance fitness
1,P45Y,-0.425 ± 0.075
2,P45N,0.017 ± 0.053
3,F33N,-0.488 ± 0.12
4,F33Q,-0.38 ± 0.061
5,F33C,0.059 ± 0.11
6,F33G,-0.537 ± 0.069
7,L44A,-0.3 ± 0.071
8,L44R,-0.445 ± 0.059
9,R21F,-0.265 ± 0.06
10,R21N,-0.711 ± 0.2
11,R21T,0.13 ± 0.039
12,C10W,-0.519 ± 0.06
13,S39G,0.185 ± 0.034
14,S39N,-0.036 ± 0.071
15,S39Y,-0.428 ± 0.069
16,C29K,-1.11 ± 0.23
17,C29N,-0.942 ± 0.16
18,C29P,-0.835 ± 0.081
19,C29E,-0.666 ± 0.068
20,E6V,-0.254 ± 0.046
21,E6N,-0.121 ± 0.064
22,E6Q,-0.203 ± 0.048
23,E6C,0.009 ± 0.046
24,E6D,-0.078 ± 0.072
25,E6R,-0.336 ± 0.055
26,K23N,-0.491 ± 0.074

row,Variant,abundance fitness
1,R22V,0 ± 0.034
2,H58W,0.022 ± 0.042
3,H58P,-0.667 ± 0.061
4,S18K,-0.087 ± 0.047
5,S18F,-0.352 ± 0.057
6,T36D,0.401 ± 0.048
7,T36I,0.083 ± 0.076
8,N40S,-0.004 ± 0.035
9,N40A,-0.163 ± 0.041
10,N40G,-0.03 ± 0.037
11,E41P,-0.418 ± 0.06
12,E41N,-0.184 ± 0.065
13,H31E,-0.277 ± 0.07
14,H31R,-0.142 ± 0.037
15,H31C,-0.445 ± 0.095
16,V51Q,-0.17 ± 0.11
17,V51C,-1.01 ± 0.13
18,V51W,-0.535 ± 0.097
19,E14Q,-0.113 ± 0.065
20,E14V,-0.41 ± 0.045
21,E14P,-0.856 ± 0.12
22,E14A,-0.08 ± 0.033
23,E14G,0.006 ± 0.034
24,K49V,-0.14 ± 0.051
25,D5Y,-0.258 ± 0.07
26,D5V,-0.313 ± 0.047

row,Variant,abundance fitness
1,D5E,-0.134 ± 0.056
2,D5C,-0.17 ± 0.069
3,A7D,-0.039 ± 0.068
4,A7Q,0.04 ± 0.058
5,A7V,-0.108 ± 0.039
6,A7E,0.017 ± 0.05
7,A7C,-0.082 ± 0.048
8,A7M,-0.302 ± 0.055
9,Q12N,-0.106 ± 0.085
10,Q12F,-0.458 ± 0.087
11,Q12I,-0.068 ± 0.11
12,Q12L,-0.298 ± 0.039
13,Q12S,-0.412 ± 0.051
14,C57K,-0.613 ± 0.078
15,C57A,-0.756 ± 0.091
16,L42W,-0.014 ± 0.044
17,R11P,-0.03 ± 0.053
18,D4N,-0.018 ± 0.044
19,D4V,-0.351 ± 0.052
20,D4C,-0.971 ± 0.17
21,T59C,-0.051 ± 0.052
22,T59K,0.144 ± 0.14
23,T59E,0.026 ± 0.087
24,T59I,-0.033 ± 0.059
25,T59F,-0.207 ± 0.089
26,C34W,-0.736 ± 0.067

row,Variant,abundance fitness
1,C34G,-0.608 ± 0.045
2,C34R,-0.642 ± 0.049
3,C34P,-0.633 ± 0.079
4,R27E,0.085 ± 0.058
5,R27G,0.153 ± 0.041
6,R27N,0 ± 0.088
7,R27K,0.04 ± 0.082
8,C37T,-0.627 ± 0.061
9,C37H,-0.325 ± 0.12
10,C37K,-0.658 ± 0.072
11,C37R,-0.553 ± 0.047
12,L2Y,0.058 ± 0.057
13,L2P,-1.13 ± 0.17
14,L2F,-0.061 ± 0.043
15,L2V,-0.044 ± 0.064
16,L2M,-0.074 ± 0.065
17,I32F,0.042 ± 0.067
18,I32T,0.007 ± 0.065
19,G30V,-0.764 ± 0.062
20,G30K,-1.17 ± 0.1
21,G30E,-0.239 ± 0.067
22,C13G,-0.684 ± 0.064
23,C13E,-0.738 ± 0.07
24,C13K,-1.07 ± 0.14
25,C13L,-0.913 ± 0.058
26,C13M,-0.943 ± 0.094

row,Variant,abundance fitness
1,P50Q,-0.219 ± 0.071
2,P50S,-0.253 ± 0.053
3,P50N,-0.043 ± 0.086
4,P50M,-0.162 ± 0.063
5,S38E,-0.954 ± 0.44
6,S38G,-0.067 ± 0.053
7,Y47P,-0.433 ± 0.061
8,Y47Q,-0.14 ± 0.063
9,E16Q,-0.329 ± 0.077
10,E16N,-0.029 ± 0.06
11,T8Q,0.008 ± 0.048
12,H24G,-0.515 ± 0.066
13,H24W,-0.282 ± 0.048
14,H24V,-0.166 ± 0.046
15,W1R,-0.182 ± 0.077
16,W1S,0.121 ± 0.07
17,I19Y,-0.341 ± 0.055
18,I19V,-0.102 ± 0.045
19,I19H,-0.036 ± 0.039
20,I19L,-0.038 ± 0.038
21,N28I,-0.261 ± 0.065
22,N28Y,-0.283 ± 0.065
23,N28K,-0.202 ± 0.066
